Results as given in US20210060185A1.

Target: T1, GvpA of Anabaena flos-aquae (primary shell protein of the gas vesicle) (Anabaena flos-aquae) (UniProt P10397)
T1 sequence: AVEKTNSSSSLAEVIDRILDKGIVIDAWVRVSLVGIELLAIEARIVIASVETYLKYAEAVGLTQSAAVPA
Assay: cell-based or functional assay

B1: WT Ana GvpC (under pTet promoter) (protein)
chain: MISLMAKIRQEHQSIAEKVAELSLETREFLSVTTAKRQEQAEKQAQELQAFYKDLQETSQQFLSETAQARIAQAEKQAQELLAFHKELQETSQQFLSATAQARIAQAEKQAQELLAFYQEVRETSQQFLSATAQARIAQAEKQAQELLAFHKELQETSQQFLSATADARTAQAKEQKESLLKFRQDLFVSIFG
B1 showed a nonlinear ultrasound contrast of Nissle cells expressing ASGClpXP, with against without aTc induction of WT GvpC of 10 dB.
